B1: Septin-2 (Homo sapiens), Q15019 (parent)
chain: MSKQQPTQFINPETPGYVGFANLPNQVHRKSVKKGFEFTLMVVGESGLGKSTLINSLFLTDLYPERVIPGAAEKIERTVQIEASTVEIEERGVKLRLTVVDTPGYGDAINCRDCFKTIISYIDEQFERYLHDESGLNRRHIIDNRVHCCFYFISPFGHGLKPLDVAFMKAIHNKVNIVPVIAKADTLTLKERERLKKRILDEIEEHNIKIYHLPDAESDEDEDFKEQTRLLKASIPFSVVGSNQLIEAKGKKVRGRLYPWGVVEVENPEHNDFLKLRTMLITHMQDLQEVTQDLHYENFRSERLKRGGRKVENEDMNKDQILLEKEAELRRMQEMIARMQAQMQMQMQGGDGDGGALGHHV
partner: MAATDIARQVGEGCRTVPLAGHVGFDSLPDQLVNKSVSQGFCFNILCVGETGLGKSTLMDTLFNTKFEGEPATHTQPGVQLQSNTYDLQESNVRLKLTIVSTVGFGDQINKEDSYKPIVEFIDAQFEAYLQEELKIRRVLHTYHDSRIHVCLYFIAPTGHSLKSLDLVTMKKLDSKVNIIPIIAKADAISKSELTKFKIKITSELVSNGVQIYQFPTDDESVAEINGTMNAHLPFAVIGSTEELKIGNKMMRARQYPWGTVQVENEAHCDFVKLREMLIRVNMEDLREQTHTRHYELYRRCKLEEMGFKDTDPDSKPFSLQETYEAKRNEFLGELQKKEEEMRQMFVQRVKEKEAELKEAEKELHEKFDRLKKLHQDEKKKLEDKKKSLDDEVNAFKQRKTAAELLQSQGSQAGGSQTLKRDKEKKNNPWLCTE
B2: Break repair meiotic recombinase recruitment factor 1 (Homo sapiens), Q0VDD7 (parent)
chain: MTKRKKLRTSGEGLCPPKPLKNPRLGDFYGDPQSSMLGCLHHPEEPEGKLGPVPSTQQHGEEPGKAVSSSPDEETGSPCRLLRQPEKEPAPLPPSQNSFGRFVPQFAKSRKTVTRKEEMKDEDRGSGAFSLETIAESSAQSPGCQLLVETLGVPLQEATELGDPTQADSARPEQSSQSPVQAVPGSGDSQPDDPPDRGTGLSASQRASQDHLSEQGADDSKPETDRVPGDGGQKEHLPSIDSEGEKPDRGAPQEGGAQRTAGAGLPGGPQEEGDGVPCTPASAPTSGPAPGLGPASWCLEPGSVAQGSPDPQQTPSRMGREGEGTHSSLGCSSLGMVVIADLSTDPTELEERALEVAGPDGQASAISPASPRRKAADGGHRRALPGCTSLTGETTGESGEAGQDGKPPGDVLVGPTASLALAPGSGESMMGAGDSGHASPDTGPCVNQKQEPGPAQEEAELGGQNLERDLEGFRVSPQASVVLEHREIADDPLQEPGAQQGIPDTTSELAGQRDHLPHSADQGTWADSLAVELDFLLDSQIQDALDASDFEAPPEQLFPSGNKPGPCWPGPSSHANGDPVAVAKAQPRTFVGIQASEASRMEDATNVVRGLIVELSNLNRLIMGTHRDLEAFKRLNYRKTKLGGKAPLPYPSKGPGNIPRGDPPWREL
partner: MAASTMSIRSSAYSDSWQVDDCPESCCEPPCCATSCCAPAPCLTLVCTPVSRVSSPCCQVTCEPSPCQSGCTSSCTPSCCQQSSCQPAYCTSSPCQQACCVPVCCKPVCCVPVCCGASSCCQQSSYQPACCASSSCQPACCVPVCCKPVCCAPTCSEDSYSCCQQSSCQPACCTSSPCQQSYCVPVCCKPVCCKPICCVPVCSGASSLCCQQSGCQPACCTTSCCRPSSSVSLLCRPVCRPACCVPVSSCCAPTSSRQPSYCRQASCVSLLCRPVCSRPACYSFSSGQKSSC
B3: AP-4 complex subunit beta-1 (Homo sapiens), Q9Y6B7 (parent)
chain: MPYLGSEDVVKELKKALCNPHIQADRLRYRNVIQRVIRYMTQGLDMSGVFMEMVKASATVDIVQKKLVYLYMCTYAPLKPDLALLAINTLCKDCSDPNPMVRGLALRSMCSLRMPGVQEYIQQPILNGLRDKASYVRRVAVLGCAKMHNLHGDSEVDGALVNELYSLLRDQDPIVVVNCLRSLEEILKQEGGVVINKPIAHHLLNRMSKLDQWGQAEVLNFLLRYQPRSEEELFDILNLLDSFLKSSSPGVVMGATKLFLILAKMFPHVQTDVLVRVKGPLLAACSSESRELCFVALCHVRQILHSLPGHFSSHYKKFFCSYSEPHYIKLQKVEVLCELVNDENVQQVLEELRGYCTDVSADFAQAAIFAIGGIARTYTDQCVQILTELLGLRQEHITTVVVQTFRDLVWLCPQCTEAVCQALPGCEENIQDSEGKQALIWLLGVHGERIPNAPYVLEDFVENVKSETFPAVKMELLTALLRLFLSRPAECQDMLGRLLYYCIEEEKDMAVRDRGLFYYRLLLVGIDEVKRILCSPKSDPTLGLLEDPAERPVNSWASDFNTLVPVYGKAHWATISKCQGAERCDPELPKTSSFAASGPLIPEENKERVQELPDSGALMLVPNRQLTADYFEKTWLSLKVAHQQVLPWRGEFHPDTLQMALQVVNIQTIAMSRAGSRPWKAYLSAQDDTGCLFLTELLLEPGNSEMQISVKQNEARTETLNSFISVLETVIGTIEEIKS
partner: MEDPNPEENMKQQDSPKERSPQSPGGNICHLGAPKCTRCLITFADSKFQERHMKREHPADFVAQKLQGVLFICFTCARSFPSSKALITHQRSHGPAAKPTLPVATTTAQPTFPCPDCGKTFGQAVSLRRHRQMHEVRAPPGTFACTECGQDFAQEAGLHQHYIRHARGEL

Variants of: B1
Conditions: with sept6_human SEPTIN6, Q14141
With MSKQQPTQFINPETPGYVGFANLPNQVHRKSVKKGFEFTLMVVGESGLGKSTLINSLFLTDLYPERVIPGAAEKIERTVQIEASTVEIEERGVKLRLTVVDTPGYGDAINCRDCFKTIISYIDEQFERYLHDESGLNRRHIIDNRVHCCFYFISPFGHGLKPLDVAFMKAIHNKVNIVPVIAKADTLTLKERERLKKRILDEIEEHNIKIYHLPDAESDEDEDFKEQTRLLKASIPFSVVGSNQLIEAKGKKVRGRLYPWGVVEVENPEDNDFLKLRTMLITHMQDLQEVTQDLHYENFRSERLKRGGRKVENEDMNKDQILLEKEAELRRMQEMIARMQAQMQMQMQGGDGDGGALGHHV [H270D] the “effect of a mutation on the interaction” value was “with no effect”.

Variants of: B2
Conditions: with kr109_human KRTAP10-9, P60411
In the case of L155F, the “effect of a mutation on the interaction” value is reported as “with no effect”. With G267R the “effect of a mutation on the interaction” value was “with no effect”. With Q500R the “effect of a mutation on the interaction” value was “with no effect”. In the case of N576S, the “effect of a mutation on the interaction” value is reported as “with no effect”.

Variants of: B3
Conditions: with zn576_human ZNF576, Q9H609
For L480S, the “effect of a mutation on the interaction” value was “with no effect”.

Source: IntAct's records for PubMed 31515488
